Here are results for two proteins from article PMC10238842 (Molecular Therapy. Methods & Clinical Development, 2023).

This series concerns the molecule itself. Put plainly: native MS.

B1: AAV1 VP3 (VP3M, VP3 203-736) of the AAV1-VP3-only capsid (natural protein, adeno-associated virus serotype 1 (AAV1), UniProt Q9WBP8 204-736, looked up)
chain: ASGGGAPMADNNEGADGVGNASGNWHCDSTWLGDRVITTSTRTWALPTYNNHLYKQISSASTGASNDNHYFGYSTPWGYFDFNRFHCHFSPRDWQRLINNNWGFRPKRLNFKLFNIQVKEVTTNDGVTTIANNLTSTVQVFSDSEYQLPYVLGSAHQGCLPPFPADVFMIPQYGYLTLNNGSQAVGRSSFYCLEYFPSQMLRTGNNFTFSYTFEEVPFHSSYAHSQSLDRLMNPLIDQYLYYLNRTQNQSGSAQNKDLLFSRGSPAGMSVQPKNWLPGPCYRQQRVSKTKTDNNNSNFTWTGASKYNLNGRESIINPGTAMASHKDDEDKFFPMSGVMIFGKESAGASNTALDNVMITDEEEIKATNPVATERFGTVAVNFQSSSTDPATGDVHAMGALPGMVWQDRDVYLQGPIWAKIPHTDGHFHPSPLMGGFGLKNPPPQILIKNTPVPANPPAEFSATKFASFITQYSTGQVSVEIEWELQKENSKRWNPEVQYTSNYAKSANVDFTVDNNGLYTEPRPIGTRYLTRPL
modifications: N-terminal methionine M203 removed; A204 acetylated at the N terminus
Turning to B1, the stoichiometry N (commonly the number of molecules, sites or subunits per partner or assembly) stood at 60.

B2: AAV1-M211V-VP3 (VP3 of the AAV1-M211V-VP3-only capsid) (natural protein, adeno-associated virus serotype 1 (AAV1), UniProt Q9WBP8 204-736, looked up)
chain: ASGGGAPVADNNEGADGVGNASGNWHCDSTWLGDRVITTSTRTWALPTYNNHLYKQISSASTGASNDNHYFGYSTPWGYFDFNRFHCHFSPRDWQRLINNNWGFRPKRLNFKLFNIQVKEVTTNDGVTTIANNLTSTVQVFSDSEYQLPYVLGSAHQGCLPPFPADVFMIPQYGYLTLNNGSQAVGRSSFYCLEYFPSQMLRTGNNFTFSYTFEEVPFHSSYAHSQSLDRLMNPLIDQYLYYLNRTQNQSGSAQNKDLLFSRGSPAGMSVQPKNWLPGPCYRQQRVSKTKTDNNNSNFTWTGASKYNLNGRESIINPGTAMASHKDDEDKFFPMSGVMIFGKESAGASNTALDNVMITDEEEIKATNPVATERFGTVAVNFQSSSTDPATGDVHAMGALPGMVWQDRDVYLQGPIWAKIPHTDGHFHPSPLMGGFGLKNPPPQILIKNTPVPANPPAEFSATKFASFITQYSTGQVSVEIEWELQKENSKRWNPEVQYTSNYAKSANVDFTVDNNGLYTEPRPIGTRYLTRPL
modifications: N-terminal acetylation (NTA)
Take B2: the binding result is listed as “binds”.
